Assay results published in patent US20220280636A1.

Key:
[1] = target: guinea pig whole molecule IgG (guinea pig); assay: SPR; IgG amine coupled to CM5 chip, construct flowed at 750 ug/ml; end-point RU of association phase
[2] = target: human IgG Fc (human); assay: as above
[3] = target: mouse whole molecule IgG (mouse); assay: as above
[4] = target: rabbit whole molecule IgG (rabbit); assay: as above
[5] = target: human whole molecule IgG (human); assay: as above
[6] = target: guinea pig whole molecule IgG (guinea pig); assay: SPR; IgG amine coupled to CM5 chip, control flowed at 490 ug/ml at the start of the serial flows; end-point RU of association phase
[7] = target: human IgG Fc (human); assay: as above
[8] = target: mouse whole molecule IgG (mouse); assay: as above
[9] = target: rabbit whole molecule IgG (rabbit); assay: as above
[10] = target: human whole molecule IgG (human); assay: as above
[11] = target: guinea pig whole molecule IgG (guinea pig); assay: SPR; IgG amine coupled to CM5 chip, control flowed at 490 ug/ml at the end of the serial flows; end-point RU of association phase
[12] = target: human IgG Fc (human); assay: as above
[13] = target: mouse whole molecule IgG (mouse); assay: as above
[14] = target: rabbit whole molecule IgG (rabbit); assay: as above
[15] = target: human whole molecule IgG (human); assay: as above
[16] = target: rabbit whole molecule IgG (rabbit); assay: SPR; IgG amine-coupled to CM5 chip, control flowed at 490 ug/ml at the start of the serial flows; end-point RU of association phase
[17] = target: human whole molecule IgG (human); assay: as above
[18] = target: human IgG Fc (human); assay: SPR; IgG amine-coupled to CM5 chip, control flowed at 490 ug/ml at the end of the serial flows; end-point RU of association phase
[19] = target: rabbit whole molecule IgG (rabbit); assay: as above
[20] = target: human whole molecule IgG (human); assay: as above
[21] = target: human IgG Fc (human); assay: SPR; IgG amine-coupled to CM5 chip, control flowed at 490 ug/ml at the start of the serial flows; end-point RU of association phase
[22] = target: rabbit whole molecule IgG (rabbit); assay: as above; remark: listed apart in the source
[23] = target: human whole molecule IgG (human); assay: as above; remark: listed apart in the source
[24] = target: human IgG Fc (human); assay: SPR; IgG amine-coupled to CM5 chip, control flowed at 490 ug/ml at the end of the serial flows; end-point RU of association phase; remark: listed apart in the source
[25] = target: rabbit whole molecule IgG (rabbit); assay: as above; remark: listed apart in the source
[26] = target: human whole molecule IgG (human); assay: as above; remark: listed apart in the source

B1: gE-1t 419 (protein)
chain: GTPKTSWRRVSVGEDVSLLPAPGPTGRGPTQKLLWAVEPLDGCGPLHPSWVSLMPPKQVPETVVDAACMRAPVPLAMAYAPPAPSATGGLRTDFVWQERAAVVNRSLVIHGVRETDSGLYTLSVGDIKDPARQVASVVLVVQPAPVPTPPPTPADYDEDDNDEGEDESLAGTPASGTPRLPPPPAPPRSWPSAPEVSHVRGVTVRMETPEAILFSPGETFSTNVSIHAIAHDDQTYSMDVVWLRFDVPTSCAEMRIYESCLYHPQLPECLSPADAPCAASTWTSRLAVRSYAGCSRTNPPPRCSAEAHMEPVPGLAWQAASVNLEFRDASPQHSGLYLCVVYVNDHIHAWGHITISTAAQYRNAVVEQPLPQRGADLAEPTHPHVGAPPHAPPTHGALR
[1]
  RU Post Association: 27 RU
[2]
  RU Post Association: 69 RU
[3]
  RU Post Association: 4 RU
[4]
  RU Post Association: 188 RU
[5]
  RU Post Association: 127 RU

B2: gE-1t 411 (protein)
chain: GTPKTSWRRVSVGEDVSLLPAPGPTGRGPTQKLLWAVEPLDGCGPLHPSWVSLMPPKQVPETVVDAACMRAPVPLAMAYAPPAPSATGGLRTDFVWQERAAVVNRSLVIHGVRETDSGLYTLSVGDIKDPARQVASVVLVVQPAPVPTPPPTPADYDEDDNDEGEDESLAGTPASGTPRLPPPPAPPRSWPSAPEVSHVRGVTVRMETPEAILFSPGETFSTNVSIHAIAHDDQTYSMDVVWLRFDVPTSCAEMRIYESCLYHPQLPECLSPADAPCAASTWTSRLAVRSYAGCSRTNPPPRCSAEAHMEPVPGLAWQAASVNLEFRDASPQHSGLYLCVVYVNDHIHAWGHITISTAAQYRNAVVEQPLPQRGADLAEPTHPHVGAPPHA
[6]
  RU Post Association: 32 RU
[7]
  RU Post Association: 77 RU
[8]
  RU Post Association: 4 RU
[9]
  RU Post Association: 231 RU
[10]
  RU Post Association: 147 RU
[11]
  RU Post Association: 30 RU
[12]
  RU Post Association: 72 RU
[13]
  RU Post Association: 8 RU
[14]
  RU Post Association: 223 RU
[15]
  RU Post Association: 144 RU
[16]
  RU Post Association: 221 RU
[17]
  RU Post Association: 145 RU
[18]
  RU Post Association: 76 RU
[19]
  RU Post Association: 228 RU
[20]
  RU Post Association: 152 RU
[21]
  RU Post Association: 80 RU
[22]
  RU Post Association: 228 RU
[23]
  RU Post Association: 157 RU
[24]
  RU Post Association: 75 RU
[25]
  RU Post Association: 221 RU
[26]
  RU Post Association: 150 RU
